The experiment concerns the target T1, His-DUB3 (UniProt Q6R6M4 1-530).
T1 construct: cloned into PET28A; source: purified recombinant
T1 sequence (looked up): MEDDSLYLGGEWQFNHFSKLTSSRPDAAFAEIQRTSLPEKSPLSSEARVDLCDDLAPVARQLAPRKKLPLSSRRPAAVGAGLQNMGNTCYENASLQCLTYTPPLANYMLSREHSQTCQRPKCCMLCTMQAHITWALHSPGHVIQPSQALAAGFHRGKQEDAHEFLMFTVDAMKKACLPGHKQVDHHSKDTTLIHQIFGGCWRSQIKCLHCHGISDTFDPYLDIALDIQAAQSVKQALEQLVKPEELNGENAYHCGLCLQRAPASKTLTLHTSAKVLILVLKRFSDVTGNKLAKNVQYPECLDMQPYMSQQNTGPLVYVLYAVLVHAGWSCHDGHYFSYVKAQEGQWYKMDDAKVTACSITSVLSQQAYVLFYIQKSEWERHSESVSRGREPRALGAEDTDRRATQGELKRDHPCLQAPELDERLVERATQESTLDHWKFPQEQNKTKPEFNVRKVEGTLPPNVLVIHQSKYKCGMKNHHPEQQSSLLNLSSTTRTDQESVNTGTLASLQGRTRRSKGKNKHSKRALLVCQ
The experiment in a line: pull-down; purified recombinant GST or GST fusion protein and His-tagged protein incubated in vitro. The note with it: both partners purified.

B1: GST-CDK4 (enzyme, UniProt P11802 1-303, looked up)
chain: MATSRYEPVAEIGVGAYGTVYKARDPHSGHFVALKSVRVPNGGGGGGGLPISTVREVALLRRLEAFEHPNVVRLMDVCATSRTDREIKVTLVFEHVDQDLRTYLDKAPPPGLPAETIKDLMRQFLRGLDFLHANCIVHRDLKPENILVTSGGTVKLADFGLARIYSYQMALTPVVVTLWYRAPEVLLQSTYATPVDMWSVGCIFAEMFRRKPLFCGNSEADQLGKIFDLIGLPPEDDWPRDVSLPRGAFPPRGPRPVQSVVPEMEESGAQLLLEMLTFNPHKRISAFRALQHSYLHKDEGNPE
notes: also called CDK4/6; source: purified recombinant
On to B1, for which the binding result is listed as “binds”.

(Values after PMC5228031, “CDK4/6-dependent activation of DUB3 regulates cancer metastasis through SNAIL1” (Nature Communications, 2017).)
